Patent US20240059771A1 (SHANGHAI JUNSHI BIOSCIENCES, published 2024)

Tests used:
human CLDN-18.2 [1] = molecular target: T1, human CLDN-18.2 (human, UniProt P56856-2 1-261); assay: cell-based or functional assay
human CLDN-18.2 [2] = molecular target: T1, human CLDN-18.2; assay: flow cytometry (FACS) on NUGC4-CLDN-18.2 cells, fluorescent secondary antibody, MFI
Excerpt: Fluorescent signal was detected by FACS; the stronger the detected fluorescent signal, the higher the antibody affinity, that is, the higher the target binding activity. Antibody binding curves were fitted by GraphPad (FIGS. 4a, 4b and 4c), and the positive and negative controls were IMAB362 and anti-KLH hu-IgG1 antibody, respectively.

human CLDN-18.2 [3] = molecular target: T1, human CLDN-18.2; assay: flow cytometry on NUGC4-CLDN-18.2 cells, 4 C 30 min, fluorescent secondary antibody
Procedure: Finally, the fluorescence intensity was detected by BD CantoII flow cytometer. The stronger the fluorescent signal, the higher the affinity of the antibody to the target. The antibody dose-dependent binding curve was fitted by GraphPad (FIG. 1) and EC₅₀ was calculated (Table 3). The positive and negative controls were IMAB362 and anti-KLH hu-IgG1 antibody, respectively.

Binder	EC50 of ADCC effect (Jurkat ADCC NFAT luciferase reporter cells) (human CLDN-18.2 [1])	EC50 of CDC effect (complement serum, PI staining, relative killing rate) (human CLDN-18.2 [1])	EC50 (read off the curve) (human CLDN-18.2 [2])	EC50 of CDC effect (complement serum, PI staining, flow cytometry) (human CLDN-18.2 [1])	EC50 of ADCC effect (Jurkat NFAT-Luc/FcγRIIIaR reporter cells) (human CLDN-18.2 [1])	EC50 (human CLDN-18.2 [3])	also measured
humanized anti-CLDN-18.2 antibody JS012-Chi27-hu3-v2 (antibody, human IgG1, V domains shown) VH: EVQLVESGGGLVKPGGSLRLSCAASGFTFSSYGMSWVRQAPGKGLEWVSTISGGDSYTYYPDSVRGRFTISRDNAKNSLYLQMNSLRAEDTAVYYCARSYNGNSLPYWGQGTLVTVSS VL: DIVMTQSPDSLAVSLGERATINCKSSQSLLNSGNQRNYLTWYQQKPGQPPKLLIYWASTRESGVPDRFSGSGSGTDFTLTISSLQAEDVAVYYCQNNYFYPFTFGQGTKLEIK	0.0358 µg/mL	0.169 µg/mL	~1 µg/mL				
humanized anti-CLDN-18.2 antibody JS012-Chi27-hu6-v3-2 (antibody, human IgG1, V domains shown) VH: EVQLVESGGGLVKPGGSLRLSCAASGFTFSSYGMSWVRQAPGKGLESVSTISGGDSYTYYPDSVRGRFTISRDIAKNSLYLQMNSLRAEDTAVYYCARSYNGNSLPYWGQGTLVTVSS VL: DIVMTQSPDSLAVSLGERATINCKSSQSLLNSGNQRNYLTWYQQKPGQPPKLLIYWASTRESGVPDRFSGSGSGTDFTLTISSLQAEDVAVYYCQNNYFYPFTFGQGTKLEIK	0.0742 µg/mL	0.715 µg/mL	~5 µg/mL				
humanized anti-CLDN-18.2 antibody JS012-Chi9-hu7-v2 (antibody, human IgG1, kappa, V domains shown) VH: QVQLVQSGSELKKPGESVKVSCKASGYTFTNYGMNWVRQAPGQGLEWMGWINTYTGESTYADGFTGRFVFSMDTSASTAYLQISSLKAEDMAMYFCATLGYGNSLAYWGQGTLVTVSS VL: DIVMTQSPDSLAVSLGERATINCKSSQSLLNSGNQRNYLTWYQQKPGQPPKLLIYWASTRESGVPDRFSGSGSGTDFTLTISSLQAEDVAVYYCQNNYFYPFTFGQGTKLEIKR	0.0225 µg/mL	0.134 µg/mL	~1 µg/mL				
humanized anti-CLDN-18.2 antibody JS012-Chi2-hu2-v3-2 (antibody, human IgG1, kappa, V domains shown) VH: EVQLVESGGGLVQPGGSLRLSCAASGFTLNNFGMHWVRQAPGKGLEWVSSISSGSGTIYYADSVKGRFTISRDNPKNSLYLQMNSLRAEDTAVYYCARAYYGNGFSFWGQGTLVTVSS VL: DIVMTQSPDSLAVSLGERATINCKSSQSLLNSGNQKNYLTWYQQKPGQPPKLLIYWASTRESGVPDRFSGSGSGTDFTLTISSLQAEDVAVYYCQNVYSYPLTFGQGTKLEIKR	0.0142 µg/mL	0.167 µg/mL					EC50 (human CLDN-18.2 [2]): 1.65 µg/mL
humanized anti-CLDN-18.2 antibody JS012-Chi9-hu7 (antibody, human IgG1, kappa, V domains shown) VH: QIQLVQSGSELKKPGESVKVSCKASGYTFTNYGMNWVRQAPGQGLEWMGWINTYTGESTYADGFTGRFVFSSDTSARTAYLQISSLKAEDTAVYFCATLGYGNSLAYWGQGTLVTVSS VL: DIVMTQSPDSLAVSLGERATINCKSSQSLLNSGNQRNYLTWYQQKPGQPPKLLIYWASTRESGVPDRFSGSGSGTDFTLTISSLQAEDVAVYYCQNNYFYPFTFGQGTKLEIKR	0.0236 µg/mL	0.086 µg/mL	~1 µg/mL				
IMAB362 (antibody, V domains shown) VH: QVQLQQPGAELVRPGASVKLSCKASGYTFTSYWINWVKQRPGQGLEWIGNIYPSDSYTNYNQKFKDKATLTVDKSSSTAYMQLSSPTSEDSAVYYCTRSWRGNSFDYWGQGTTLTVSS VL: DIVMTQSPSSLTVTAGEKVTMSCKSSQSLLNSGNQKNYLTWYQQKPGQPPKLLIYWASTRESGVPDRFTGSGSGTDFTLTISSVQAEDLAVYYCQNDYSYPFTFGSGTKLEIKR			~2 µg/mL	0.354 µg/mL			EC50 of ADCC effect (Jurkat NFAT-Luc/FcγRIIIaR reporter cells), FIG. 2a (human CLDN-18.2 [1]): 0.036 µg/mL; EC50 of ADCC effect (Jurkat NFAT-Luc/FcγRIIIaR reporter cells), FIG. 2b (human CLDN-18.2 [1]): 0.0344 µg/mL; EC50 (human CLDN-18.2 [2]): 1.39 µg/mL
anti-CLDN-18.2 chimeric antibody Chi-JS012-2 (antibody, V domains shown, Fused to a human heavy chain constant region and a human kappa constant region cloned from human blood cells) VH: DVQLVESGGGLVQPGGSRKLSCAASGFTLNNFGMHWVRQAPEKGLEWVACISSGSGTIYYADTVKGRFTISRDNPKNTLFLQMTSLRSEDTAMYYCARAYYGNGFSFWGQGTLVTVSS VL: DIVMTQSPSSLTVTAGEKVTMSCKSSQSLLNSGNQKNYLTWYQQKPGQPPKLLIYWASTRESGVPDRFTGSGSGTDFTLTISSVQAEDLAIYYCQNVYSYPLTFGAGTKLEIK				0.461 µg/mL	0.0561 µg/mL	4.02 µg/mL	
anti-CLDN-18.2 chimeric antibody Chi-JS012-9 (antibody, V domains shown, Human heavy chain constant region and human kappa constant region) VH: QIQLVQSGPELKKPGETVKISCKASGYTFTNYGMNWVKQAPGKGLKWMGWINTYTGESTYADDFKGRFAFSSETSARTAYLQINNLKNEDMATYFCATLGYGNSLAYWGQGTLVTVSS VL: DIVMTQYPSFLTVTTGEKVTMSCKSSQSLLNSGNQRNYLTWYQQKPGQPPKLLIYWASTRESGVPDRFAGSGSGTDFTLTISSVQAEDLAIYYCQNNYFYPFTFGSGTKLEVK				0.316 µg/mL	0.0436 µg/mL	3.22 µg/mL	
anti-CLDN-18.2 chimeric antibody Chi-JS012-27 (antibody, V domains shown, Human heavy chain constant region and human kappa constant region) VH: EVKLVESGGGLVKPGGSLKLSCAASGFTFSSYGMSWVRQTPEKRLECVATISGGDSYTYYPDSVRGRFTISRDIAKNNLYLQMSSLRSEDTALYYCARSYNGNSLPYWGQGTLVTVSS VL: DIVMTQYPSFLTVTTGEKVTMSCKSSQSLLNSGNQRNYLTWYQQKPGQPPKLLIYWASTRESGVPDRFAGSGSGTDFTLTISSVQAEDLAIYYCQNNYFYPFTFGSGTKLEVK				0.265 µg/mL	0.0432 µg/mL	2.92 µg/mL	
anti-CLDN-18.2 chimeric antibody Chi-JS012-10 (antibody, V domains shown, Human heavy chain constant region and human kappa constant region) VH: QIQLVQSGPELKKPGETVKISCKASGYTFTNYGMNWVKQAPGKGLKWMGWINTYTGESTYADDFKGRFAFSSETSARTAYLQINNLKNEDMATYFCATLGYGNSLAYWGQGTLVTVSS VL: DIVMTQSPSFLTVTAGEKVTMSCKSSQSLLNSGNQKNYLTWYQQKPGQPPKLLIYWASTRDSGVPDRFTGSGSGTDFTLTITSVQAEDLAVFYCQNAYFYPFTFGSGTKLEIK				0.358 µg/mL	0.0495 µg/mL	3.19 µg/mL	
anti-CLDN-18.2 chimeric antibody Chi-JS012-21 (antibody, V domains shown, Human heavy chain constant region and human kappa constant region) VH: QIQLVQSGPELKKPGETVKISCKASGYTFTNYGMNWVKQAPGKGLKWMGWINTYTGESTYADDFKGRFAFSSETSARTAYLQINNLKNEGMATYFCARSYNGNSLPYWGQGTLVTVSS VL: DIVMTQYPSFLTVTTGEKVTMSCKSSQSLLNSGNQRNYLTWYQQKPGQPPKLLIYWASTRESGVPDRFAGSGSGTDFTLTISSVQAEDLAIYYCQNNYFYPFTFGSGTKLEVK					0.0631 µg/mL	2.37 µg/mL	
